In brackets after ≈: the same amount, converted by molar mass.
Tests used:
[1] = cited from earlier work
G462D LeuA = target: T1, G462D LeuA (Escherichia coli, UniProt P09151, G462D); experiment: measurement of LeuA activity (DTNB); format: biochemical, E. coli; conditions: for kcat: substrate of G462D LeuA, 30° C., pH 8.0
T1 construct: His tag (pQE9 vector, Ni-NTA purified) (N); TEV protease site (ENLYFQG, encoded by the forward primer) (N); made in house; host or cells: E. coli BL21(DE3) harboring pREP4
Text: (§1) Protein Expression and Purification. Both gene fragments encoding wild type and F381L/V461A KIVD were amplified from plasmid pZE_LeuABCDKA6 using primers hiskivd_tevfwd and hiskivd_bamrev. After digestion with BamHI, the gene fragments were inserted into expression plasmid pQE9 (Qiagen) to yield pQE_hiskivd_wt and pQE_hiskivd_FL. The ADH6 gene fragment was amplified from yeast genomic DNA using primers hisadh_tevfwd and hisadh_bamrev, digested with BamHI and inserted into pQE9 to generate pQE_hisadh6. Similarly, genes encoding G462D and G462D/S139G LeuA were amplified from plasmid pZE_LeuABCDKA6 using primers hisleua_tevfwd and hisleua_bamrev. After digestion with BamHI, the PCR products were ligated into pQE9 to create pQE_hisleua_GD and pQE_hisleua_GS. The resulting expression plasmids pQE_hiskivd_wt, pQE_hiskivd_FL, pQE_hisadh6, pQE_hisleua_GD and pQE_hisleua_GS were transformed into E. coli strain BL21(DE3) harboring pREP4 (Qiagen). Cells were inoculated from an overnight pre-culture at 1/100 dilution and grown in 200 ml 2XYT rich medium containing 50 mg/L ampicillin and 25 mg/L kanamycin. At an OD600 of 0.6, recombinant proteins were expressed by induction of the cell cultures with 0.1 mM IPTG, followed by incubation at 30° C. overnight. Cell pellets were lysed by sonication in a buffer containing 250 mM NaCl, 2 mM DTT, 5 mM imidazole, and 50 mM Tris pH 9.0. By applying a stepwise gradient of imidazole (up to 250 mM), enzymes were purified from crude cell lysates through Ni-NTA column chromatography. The fractions of highest purity were pooled and buffer-exchanged using Amicon Ultra centrifugal filters (Millipore). Storage buffer 1 ([…], pH 8.0, 1 mM MgSO4, and 20% glycerol) was used for LeuA and ADH6, and storage buffer 2 ([…], pH 8.0, 1 mM MgSO4, 0.2 mM ThDP, and 20% glycerol) was used for KIVD. The concentrated protein solutions were aliquoted (100 μl) into PCR tubes and flash frozen at −80° C. for long term storage.
(§2) Measurement of LeuA activity. The assay mixture contained 100 mM KCl, 2 mM MgCl2, 1 mM acetyl-CoA, and 100 mM Tris pH 8.0 with a total volume of 100 μl. 100 nM G462D or G462D/S139G LeuA was reacted with 2-ketoisovalerate in a concentration range from 25 μM to 1 mM for 10 minutes at 30° C. While 4 μM G462D or 1.5 μM G462D/S139G LeuA was reacted with (S)-2-keto-3-methylvalerate in a concentration range from 50 μM to 2 mM for 30 minutes at 30° C. The reactions were stopped by adding 0.3 ml of ethanol. Then 0.2 ml of a fresh 1 mM solution of 5,5′-Dithio-Bis (2 Nitrobenzoic Acid) in 100 mM Tris buffer pH 8.0 was added, and the yellow color product was measured at 412 nm. The values obtained were corrected for unspecific hydrolysis by subtracting the absorbance of controlled samples without addition of 2-keto acids. A molar extinction coefficient of 13,600 M^−1 cm^−1 was used in the final calculations.

F381L/V461A KIVD = F381L/V461A KIVD (Lactococcus lactis, UniProt A0A0B8QZ66, form not given/V461A); experiment: coupled enzymatic assay of KIVD decarboxylation activity; format: biochemical; conditions: for kcat: substrate of V461A/F381L KIVD, 30° C., pH 6.8
Text: as §1
(§3) Enzymatic Assay of KIVD. Substrate 2-ketoisovalerate (KIV) was purchased from Sigma-Aldrich, and (S)-2-keto-4-methylhexanoate (KHV) was custom synthesized by AsisChem. Inc. Protein concentration was determined by measuring UV absorbance at 280 nm. The decarboxylation activity of KIVD was measured at 30° C. using a coupled enzymatic assay method. Excess ADH6 was used to reduce aldehyde into alcohol, and concomitantly, cofactor NADPH was oxidized to NADP+. The assay mixture contained 0.2 mM NADPH, 0.1 μM ADH6 and 0.1-20 mM 2-keto acids in assay buffer (50 mM potassium phosphate buffer, pH 6.8, 1 mM MgSO4, 0.5 mM ThDP) with a total volume of 0.2 mL. The reactions were started by adding 2 μl KIVD (final concentration: for KIV, 20 nM wt KIVD, 200 nM F381L/V461A KIVD; for KHV, 50 nM both), and the consumption of NADPH was monitored at 340 nm (extinction coefficient, 6.22 mM^−1 cm^−1). Kinetic parameters (kcat and Km) were determined by fitting initial velocity data to the Michaelis-Menten equation using Origin.

wild type KIVD = wild type KIVD (Lactococcus lactis, UniProt A0A0B8QZ66); experiment: as above; format: biochemical; conditions: for kcat: substrate of Wild type KIVD, 30° C., pH 6.8
Text: as §1, §3

G462D/S139G LeuA = target: T2, G462D/S139G LeuA (Escherichia coli, UniProt P09151, G462D/S139G); experiment: measurement of LeuA activity (DTNB); format: biochemical, E. coli
T2 construct: His tag (pQE9 vector, Ni-NTA purified) (N); TEV protease site (ENLYFQG, encoded by the forward primer) (N); made in house; host or cells: E. coli BL21(DE3) harboring pREP4
Text: as §1, §2

CC[C@H](C)C(=O)C(=O)O = experiment: measurement of LeuA activity (DTNB); format: biochemical, E. coli; conditions: 30° C., pH 8.0
Text: as §1, §2

CC(C)C(=O)C(=O)O = experiment: measurement of LeuA activity (DTNB); format: biochemical, E. coli; conditions: 30° C., pH 8.0
Text: as §1, §2

[2] = substrate: CC[C@H](C)CC(=O)C(=O)O; experiment: coupled enzymatic assay of KIVD decarboxylation activity; format: biochemical, Lactococcus lactis; conditions: other: substrate of Wild type KIVD, 30° C., pH 6.8
Text: as §1, §3

[3] = substrate: CC(C)C(=O)C(=O)O; experiment: as above; format: biochemical, Lactococcus lactis; conditions: other: substrate of Wild type KIVD, 30° C., pH 6.8
Text: as §1, §3

[4] = other: substrate of G462D/S139G LeuA

T1 sequence (P09151 whole entry G462D): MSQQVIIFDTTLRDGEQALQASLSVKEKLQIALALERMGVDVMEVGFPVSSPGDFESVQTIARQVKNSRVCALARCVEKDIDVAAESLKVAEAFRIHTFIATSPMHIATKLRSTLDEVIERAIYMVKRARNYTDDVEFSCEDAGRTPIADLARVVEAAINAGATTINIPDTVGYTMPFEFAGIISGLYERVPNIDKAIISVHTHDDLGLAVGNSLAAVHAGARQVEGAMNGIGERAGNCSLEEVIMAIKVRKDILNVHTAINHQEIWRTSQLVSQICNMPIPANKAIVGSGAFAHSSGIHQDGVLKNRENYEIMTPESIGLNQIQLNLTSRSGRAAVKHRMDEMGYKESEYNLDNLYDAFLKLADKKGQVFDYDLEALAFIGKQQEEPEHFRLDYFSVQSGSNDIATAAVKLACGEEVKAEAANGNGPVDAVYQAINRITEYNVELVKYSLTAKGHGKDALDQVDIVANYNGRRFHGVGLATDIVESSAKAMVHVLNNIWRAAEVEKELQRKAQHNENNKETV
T2 sequence (P09151 whole entry S139G/G462D): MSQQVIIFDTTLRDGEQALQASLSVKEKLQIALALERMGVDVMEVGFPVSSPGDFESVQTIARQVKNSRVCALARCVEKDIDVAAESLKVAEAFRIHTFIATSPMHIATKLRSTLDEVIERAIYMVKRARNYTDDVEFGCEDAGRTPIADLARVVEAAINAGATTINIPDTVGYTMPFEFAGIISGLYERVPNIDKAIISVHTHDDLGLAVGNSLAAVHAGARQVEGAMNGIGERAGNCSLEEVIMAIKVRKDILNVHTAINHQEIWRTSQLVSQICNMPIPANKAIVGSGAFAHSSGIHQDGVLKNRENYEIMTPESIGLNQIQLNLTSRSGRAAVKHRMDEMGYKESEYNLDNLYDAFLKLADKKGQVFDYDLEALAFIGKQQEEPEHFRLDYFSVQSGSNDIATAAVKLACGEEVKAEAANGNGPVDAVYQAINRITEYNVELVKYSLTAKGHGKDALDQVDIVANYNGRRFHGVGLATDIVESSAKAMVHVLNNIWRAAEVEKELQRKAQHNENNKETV

CCCCCO [1-Pentanol]
water solubility [1]: 23 mg/mL (≈ 261 mM)

CCCCCCCO [1-heptanol]
water solubility [1]: 1.2 mg/mL (≈ 10.3 mM)

CC(C)C(=O)C(=O)O [2-Ketoisovalerate]
kcat (G462D LeuA): 6.0 s⁻¹ | kcat (F381L/V461A KIVD): 2.7 ± 0.6 s⁻¹ | kcat (F381L/V461A KIVD; listed as 2-ketoisovalerate): 2.7 s⁻¹ | kcat (wild type KIVD): 38.3 s⁻¹

CC[C@H](C)C(=O)C(=O)O [(S)-2-keto-3-methylvalerate]
kcat, fold less than that for 2-ketoisovalerate (G462D LeuA; G462D LeuA): 333 fold | kcat (G462D LeuA): 0.018 s⁻¹ | increase of kcat by the S139G mutation (G462D/S139G LeuA; G462D/S139G versus G462D LeuA): 7 fold | kcat (G462D/S139G LeuA; substrate of G462D/S139G LeuA, 30° C., pH 8.0): 0.12 s⁻¹

CC[C@H](C)CC(=O)C(=O)O [(S)-2-keto-4-methylhexanoate]
specificity constant kcat/Km relative to that towards 2-ketoisovalerate (F381L/V461A KIVD; F381L/V461A KIVD): 40 fold | kcat (F381L/V461A KIVD): 3.0 ± 0.1 s⁻¹ | kcat (F381L/V461A KIVD; listed as 2-keto-4-methylhexanoate): 3.0 s⁻¹ | kcat (wild type KIVD): 10.8 s⁻¹ | specificity constant kcat/Km relative to that towards 2-ketoisovalerate (wild type KIVD; wild type KIVD): 4 fold

G462D LeuA (Escherichia coli K-12; G462D)
Km (CC[C@H](C)C(=O)C(=O)O; other: substrate of G462D LeuA): 55 µM | kcat (CC[C@H](C)C(=O)C(=O)O; other: substrate of G462D LeuA): 0.018 ± 0.001 s⁻¹ | kcat/Km (CC[C@H](C)C(=O)C(=O)O; other: substrate of G462D LeuA): 330 M⁻¹ s⁻¹ | Km (CC(C)C(=O)C(=O)O; other: substrate of G462D LeuA): 182 µM | kcat (CC(C)C(=O)C(=O)O; other: substrate of G462D LeuA): 6.0 ± 0.3 s⁻¹ | kcat/Km (CC(C)C(=O)C(=O)O; other: substrate of G462D LeuA): 33000 M⁻¹ s⁻¹

G462D/S139G LeuA (Escherichia coli K-12; G462D/S139G)
Km (CC[C@H](C)C(=O)C(=O)O; [4]): 144 ± 13 µM | kcat (CC[C@H](C)C(=O)C(=O)O; [4]): 0.12 ± 0.02 s⁻¹ | kcat/Km (CC[C@H](C)C(=O)C(=O)O; [4]): 830 M⁻¹ s⁻¹ | Km (CC(C)C(=O)C(=O)O; [4]): 104 ± 5 µM | kcat (CC(C)C(=O)C(=O)O; [4]): 2.1 ± 0.1 s⁻¹ | kcat/Km (CC(C)C(=O)C(=O)O; [4]): 20000 M⁻¹ s⁻¹

B1: wild type KIVD (Lactococcus lactis subsp. lactis) (protein)
chain: MYTVGDYLLDRLHELGIEEIFGVPGDYNLQFLDQIISRKDMKWVGNANELNASYMADGYARTKKAAAFLTTFGVGELSAVNGLAGSYAENLPVVEIVGSPTSKVQNEGKFVHHTLADGDFKHFMKMHEPVTAARTLLTAENATVEIDRVLSALLKERKPVYINLPVDVAAAKAEKPSLPLKKENSTSNTSDQEILNKIQESLKNAKKPIVITGHEIISFGLEKTVSQFISKTKLPITTLNFGKSSVDEALPSFLGIYNGKLSEPNLKEFVESADFILMLGVKLTDSSTGAFTHHLNENKMISLNIDEGKIFNESIQNFDFESLISSLLDLSEIEYKGKYIDKKQEDFVPSNALLSQDRLWQAVENLTQSNETIVAEQGTSFFGASSIFLKPKSHFIGQPLWGSIGYTFPAALGSQIADKESRHLLFIGDGSLQLTVQELGLAIREKINPICFIINNDGYTVEREIHGPNQSYNDIPMWNYSKLPESFGATEERVVSKIVRTENEFVSVMKEAQADPNRMYWIELILAKEDAPKVLKKMGKLFAEQNKS
Km [2]: 140 µM | kcat [2]: 10.8 ± 0.3 s⁻¹ | kcat/Km [2]: 77000 M⁻¹ s⁻¹ | Km [3]: 2200 µM | kcat [3]: 38.3 ± 9.8 s⁻¹ | kcat/Km [3]: 17000 M⁻¹ s⁻¹

— US8298798B2, “Production of C5-C8 alcohols using evolved enzymes and metabolically engineered microorganisms” (The Regents of the University of California, priority 2008, dated 2012)
